Measured values published in PMC12777564, “Proposal of metagenomic-origin LRA-5 as a precursor of active β-lactamases through Tyr69Gln and Val166Glu amino acid substitutions: a functional and structural analysis” (Antimicrobial Agents and Chemotherapy, 2025).

Key:
[1] = molecular target: T1, LRA-5 (uncultured bacterium BLR5, UniProt B5L5W7); experiment: biochemical; design: time-dependent inactivation of purified LRA-5 by clavulanate, 100 uM nitrocefin as reporter substrate; conditions: wild-type LRA-5
T1 construct: gene blaLRA-5
T1 sequence (B5L5W7 entry or part of it): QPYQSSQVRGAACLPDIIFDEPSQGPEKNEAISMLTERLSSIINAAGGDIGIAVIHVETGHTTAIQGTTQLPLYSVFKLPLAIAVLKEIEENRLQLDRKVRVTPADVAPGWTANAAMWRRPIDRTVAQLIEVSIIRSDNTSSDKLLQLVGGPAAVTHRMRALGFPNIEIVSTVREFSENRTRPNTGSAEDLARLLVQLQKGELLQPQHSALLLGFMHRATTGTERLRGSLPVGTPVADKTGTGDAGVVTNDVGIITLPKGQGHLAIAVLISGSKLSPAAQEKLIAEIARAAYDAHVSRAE
Procedure: For irreversible inhibitors like clavulanic acid, the rate constant of inactivation, kinact, was measured directly by time-dependent inactivation of LRA-5 variants using a fixed concentration of enzyme and 100 µM nitrocefin as reporter and increasing concentrations of the inhibitor. The observed rate constant for inactivation (kobs) was determined by nonlinear least-squares fitting of the data using equation 3, as described elsewhere ([42]). […] This behavior is not entirely striking, as it may be related to the fact that the absence of Glu166 in the wild-type variant could still favor the inhibition of clavulanate, due to the absence of the water molecule that normally “competes” with inhibitors during acylation ([29]). Overnight cultures of recombinant E. coli BL21(DE3) cells expressing wild-type LRA-5 and LRA-5^Y69Q/V166E were diluted (1/50) in 500 mL Lysogeny Broth (LB) supplemented with 30 µg/mL kanamycin and grown at 37°C until 0.6–0.8 OD units (λ = 600 nm) was reached. […] Eluted fractions were analyzed by SDS-PAGE in 15% polyacrylamide gels. […] The protein purity was assessed by Coomassie blue staining on 15% SDS polyacrylamide gels, and protein concentration was determined by UV absorbance at 280 nm and calculated according to the Lambert-Beer law. […]

[2] = system: CO/N=C(\C(=O)N[C@@H]1C(=O)N2C(C(=O)[O-])=C(C[N+]3(C)CCCC3)CS[C@H]12)c1csc(N)n1; experiment: steady-state hydrolysis kinetics with pure enzyme (Km), no-enzyme control; format: biochemical, uncultured bacterium BLR5
From the text: steady-state hydrolysis kinetics with pure enzyme (Km), no-enzyme control on LRA-5 | The exceptions were nitrocefin and, strikingly, cefepime.

[3] = system: C[C@H]1[C@H](NC(=O)/C(=N\OC(C)(C)C(=O)O)c2csc(N)n2)C(=O)N1S(=O)(=O)O; experiment: purified protein, by the assay type; design: steady-state beta-lactam hydrolysis kinetics with purified LRA-5; Km (apparent Km via nitrocefin competition for poor substrates); conditions: pH 7.5
Procedure: (§1) For low Km values, the kcat values were derived by complete hydrolysis time courses as described by De Meester et al. ([41]). For poor substrates that behave as competitive inhibitors, the Ki was obtained by monitoring the residual activity of the enzyme in the presence of various concentrations of the drug and 100 µM nitrocefin as reporter substrate; the corrected Ki (considered the observed or apparent Km) value was finally determined using equation 2: The kinetic parameters of wild-type LRA-5 and its double substituted variant LRA-5^Y69Q/V166E are shown in Table 3. […] This behavior is expected considering that this variant lacks Glu166, which is essential to orient the deacylation water molecule during the regeneration stage of the active site. The exceptions were nitrocefin and, strikingly, cefepime. This behavior deserves more in-depth analysis. […] Overnight cultures of recombinant E. coli BL21(DE3) cells expressing wild-type LRA-5 and LRA-5^Y69Q/V166E were diluted (1/50) in 500 mL Lysogeny Broth (LB) supplemented with 30 µg/mL kanamycin and grown at 37°C until 0.6–0.8 OD units (λ = 600 nm) was reached. At this point, 1 mM isopropyl β-D-thiogalactopyranoside (IPTG) was added, and cultures were resumed for growing overnight at 20°C (200 rpm stirring). Then, cell pellets were obtained after centrifugation at 8,000 rpm for 20 min (4°C) in a Sorvall RC-5C (GS3 rotor) and resuspended in 20 mM Tris buffer (pH 7.5) + 500 mM NaCl (buffer A). Crude extracts were obtained by ultrasonic disruption (9 cycles of 5 min, 40% potency, 20 pulses/min, on ice bath) and clarified by centrifugation at 10,000 rpm for 20 min (4°C, SS34 rotor). Clarified supernatants were filtrated through 0.45 µm pore-size membranes, and loaded onto 5 mL HisTrap HP affinity columns (GE Healthcare Life Sciences, USA), connected to an ÄKTA-purifier (GE Healthcare, Uppsala, Sweden), and equilibrated with buffer A. The column was extensively washed to remove unbound proteins, and the LRA-5 proteins were eluted using a linear gradient (0%–100%; 1 mL/min flow rate) of buffer B consisting of buffer A + 500 mM imidazole (pH 7.5). Eluted fractions were analyzed by SDS-PAGE in 15% polyacrylamide gels. Fractions containing the pure LRA-5 variants were dialyzed against buffer A, and the histidine tag was removed by thrombin digestion (16 h at 25°C), using 10 U thrombin per mg protein for complete proteolysis, and later by affinity purification using 1 mL HisTrap HP columns (GE Healthcare Life Sciences, USA), following the same conditions as before (the pure LRA-5 is recovered in the pass-through, while the His-tag and any uncleaved fractions remain attached to the column). The protein purity was assessed by Coomassie blue staining on 15% SDS polyacrylamide gels, and protein concentration was determined by UV absorbance at 280 nm and calculated according to the Lambert-Beer law. The fractions of purified enzymes were stored at −80°C for subsequent kinetics and crystallographic assays.

[4] = system: CC1(C)S[C@@H]2[C@H](NC(=O)[C@H](N)c3ccccc3)C(=O)N2[C@H]1C(=O)O; experiment: purified protein, by the assay type; design: steady-state beta-lactam hydrolysis kinetics with purified LRA-5; Km (apparent Km via nitrocefin competition for poor substrates); conditions: pH 7.5
Procedure: as §1

[5] = system: CO/N=C(\C(=O)N[C@@H]1C(=O)N2C(C(=O)O)=C(CSc3nc(=O)c(=O)[nH]n3C)CS[C@H]12)c1csc(N)n1; experiment: purified protein, by the assay type; design: steady-state beta-lactam hydrolysis kinetics with purified LRA-5; Km (apparent Km via nitrocefin competition for poor substrates); conditions: pH 7.5
Procedure: as §1

[6] = system: CC(=O)OCC1=C(C(=O)O)N2C(=O)[C@@H](NC(=O)Cc3cccs3)[C@H]2SC1; experiment: purified protein, by the assay type; design: steady-state beta-lactam hydrolysis kinetics with purified LRA-5; Km (apparent Km via nitrocefin competition for poor substrates); conditions: pH 7.5
Procedure: as §1

[7] = system: O=C(Cc1cccs1)N[C@@H]1C(=O)N2C(C(=O)O)=C(/C=C/c3ccc([N+](=O)[O-])cc3[N+](=O)[O-])CS[C@H]12; experiment: purified protein, by the assay type; design: steady-state beta-lactam hydrolysis kinetics with purified LRA-5; Km (apparent Km via nitrocefin competition for poor substrates); conditions: pH 7.5
Procedure: as §1

[8] = system: C[C@@H](O)[C@H]1C(=O)N2C(C(=O)O)=C(S[C@@H]3CN[C@H](C(=O)N(C)C)C3)[C@H](C)[C@H]12; experiment: steady-state hydrolysis kinetics with pure enzyme (Km); format: biochemical, uncultured bacterium BLR5
[9] = system: C[C@@H](O)[C@H]1C(=O)N2C(C(=O)O)=C(SCCN=CN)C[C@H]12; experiment: as above; format: biochemical, uncultured bacterium BLR5
[10] = system: CC1(C)S[C@@H]2[C@H](NC(=O)[C@H](N)c3ccccc3)C(=O)N2[C@H]1C(=O)O; experiment: as above; format: biochemical, uncultured bacterium BLR5
[11] = system: CO/N=C(\C(=O)N[C@@H]1C(=O)N2C(C(=O)O)=C(CSc3nc(=O)c(=O)[nH]n3C)CS[C@H]12)c1csc(N)n1; experiment: as above; format: biochemical, uncultured bacterium BLR5
[12] = system: CC(=O)OCC1=C(C(=O)O)N2C(=O)[C@@H](NC(=O)Cc3cccs3)[C@H]2SC1; experiment: as above; format: biochemical, uncultured bacterium BLR5
[13] = system: O=C(Cc1cccs1)N[C@@H]1C(=O)N2C(C(=O)O)=C(/C=C/c3ccc([N+](=O)[O-])cc3[N+](=O)[O-])CS[C@H]12; experiment: as above; format: biochemical, uncultured bacterium BLR5

`O=C(O)[C@H]1/C(=C/CO)O[C@@H]2CC(=O)N21` [Clavulanate] gave a kinact ([1]; read-out: LRA-5 (wild-type) / kcat (s^−1) / NH / kinact) of 0.005 ± 0.0001 s⁻¹ and a kinact/KI ([1]; read-out: LRA-5 (wild-type) / kcat/Km (M^−1 s^−1) / ND / kinact/K) of 833 ± 102 M⁻¹ s⁻¹.
In the case of LRA-5 (uncultured bacterium BLR5), the Km [2] is reported as 10.0 ± 0.5 µM, the kcat [2] is reported as 0.02 ± 0.006 s⁻¹ and the kcat/Km [2] is reported as 2000 ± 100 M⁻¹ s⁻¹. For the same compound, the kcat [3] was 2e-05 ± 3e-06 s⁻¹, the kcat/Km [3] was under 0.02 M⁻¹ s⁻¹ and the Km [4] was 65 ± 13 µM. The kcat [4] was 0.01 ± 0.002 s⁻¹, the kcat/Km [4] was 154 ± 44 M⁻¹ s⁻¹ and the Km [5] was 11 ± 2 µM. It also gave a kcat [5] of 3.6e-06 ± 6e-07 s⁻¹, a kcat/Km [5] of 0.32 ± 0.08 M⁻¹ s⁻¹ and a Km [6] of 35 ± 4 µM. The kcat [6] was 0.005 ± 0.0008 s⁻¹, the kcat/Km [6] was 143 ± 28 M⁻¹ s⁻¹ and the Km [7] was 8 ± 2 µM. It also gave a kcat [7] of 0.045 ± 0.001 s⁻¹ and a kcat/Km [7] of 5600 ± 1400 M⁻¹ s⁻¹.
“LRA-5^Y69Q/V166E (uncultured bacterium BLR5; V199E/Y100Q)” gave a Km [8] of 5.0 ± 0.6 µM, a kcat [8] of 0.003 ± 0.0007 s⁻¹ and a kcat/Km [8] of 600 ± 157 M⁻¹ s⁻¹. For the same compound, the Km [9] was 3.0 ± 0.1 µM, the kcat [9] was 0.006 ± 0.0002 s⁻¹ and the kcat/Km [9] was 1920 ± 86 M⁻¹ s⁻¹. For the same compound, the Km [10] was 4.0 ± 0.2 µM, the kcat [10] was 0.002 ± 0.0006 s⁻¹ and the kcat/Km [10] was 500 ± 152 M⁻¹ s⁻¹. For the same compound, the Km [11] was 29 ± 9 µM, the kcat [11] was 0.107 ± 0.01 s⁻¹ and the kcat/Km [11] was 3690 ± 1200 M⁻¹ s⁻¹. For the same compound, the Km [12] was 14 ± 3 µM, the kcat [12] was 0.025 ± 0.001 s⁻¹ and the kcat/Km [12] was 1780 ± 389 M⁻¹ s⁻¹. It also gave a Km [13] of 32 ± 4 µM, a kcat [13] of 4.8 ± 0.3 s⁻¹ and a kcat/Km [13] of 150000 ± 21000 M⁻¹ s⁻¹.
